From publication PMC1180672

Tests used:
[1] = molecular target: hRPA70A (DNA-binding domain A of RPA70) (human, UniProt P27694 181-290); test: NMR chemical shift perturbation
[2] = molecular target: scRPA70A (DNA-binding domain A of RPA70) (Saccharomyces cerevisiae, UniProt P22336 181-294); test: NMR chemical shift perturbation
Chain of scRPA70A (DNA-binding domain A of RPA70) (P22336 181-294): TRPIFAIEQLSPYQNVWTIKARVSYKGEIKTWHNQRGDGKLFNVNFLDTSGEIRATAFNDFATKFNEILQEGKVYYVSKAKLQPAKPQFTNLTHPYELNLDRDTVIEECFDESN

Chain of hRPA70A (DNA-binding domain A of RPA70) (P27694 181-290): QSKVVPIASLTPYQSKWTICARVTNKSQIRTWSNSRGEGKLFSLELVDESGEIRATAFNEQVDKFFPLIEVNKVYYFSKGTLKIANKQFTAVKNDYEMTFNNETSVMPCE

B1: TT-10 (ssDNA)
DNA: GCGATTGCG
**Q.** Does B1 bind [1]?
**A.** binds

**Q.** Does B1 bind [2]?
**A.** binds
